For 10 substances, residual bacteriocin activity after enzyme treatment (% of original activity; bioassay with Listeria monocytogenes 4A) results are on record in patent US6054163.

This assay deals with piscicolin 126 (Carnobacterium piscicola JG126).

Regarding Protease XIV (enzyme), the residual bacteriocin activity after enzyme treatment (% of original activity; bioassay with Listeria monocytogenes 4A) was 3%.
Next, Protease I (enzyme): 0%; Lysozyme (enzyme): 100%; β-Chymotrypsin (enzyme): 0%.
With Trypsin (enzyme), the residual bacteriocin activity after enzyme treatment (% of original activity; bioassay with Listeria monocytogenes 4A) stood at 6%.
Next, Lipase (enzyme): 100%.
The figure for Catalase (enzyme) is 100%.
Next, Pepsin (enzyme): 100%; Protease XXIII (enzyme): 0%.
On to α-Chymotrypsin (enzyme), for which the residual bacteriocin activity after enzyme treatment (% of original activity; bioassay with Listeria monocytogenes 4A) is 0%.
